{"source": "patent US20240210403A1", "about": "(MARTELL DIAGNOSTIC LABORATORIES, published 2024)", "binders": {"B1": {"name": "1B7 anti-HER2 rabbit monoclonal antibody (antibody, V domains shown)", "VH": "QSVEESGGRLVTPGTPLTLTCTVSGIDLSDYAMGWVRQAPGKGLEYIGIISSSGNTHYARWARGRFTISKTSSTTVDLKMTSLTTEDTATYFCARNYPGYANYALWGQGTLVTVSS", "VL": "RIVMTQTPASVSAAVGGTVTIKCQASESISNWLSWYQQKPGQPPKLLIYRASTLASGVPSRFSGSGSGTEYTLTISDLECADAATYYCQQDYIYNDIDNAFGGGTEVVVKG", "notes": "Recombinant rabbit IgG (gamma 1 heavy, kappa 1 light) expressed in 293F cells; Used as the coated capture antibody; also called Capture Antibody (1B7; Yurogen)"}}, "molecular_target": "T1, human HER2 protein present in serum samples (human, UniProt P04626 23-652)", "T1 construct": "extracellular domain; Endogenous analyte in human sera; also called sHER2; serum HER2", "experiment": "sandwich ELISA, 1B7 capture/1G5-biotin detection", "description": "Standards, controls and samples were pipetted into the wells, and any HER2 present was bound by the immobilized antibody. […] Following a wash to remove unbound conjugate, a substrate solution was added to the wells, and color developed in proportion to the amount of HER2 bound. After color development was stopped, the absorbance was measured using a microplate spectrophotometer.\nSample Buffer/Antibody Diluent (10% Casein in 1×PBS) was prepared (˜40 mL/plate). After incubation, plates were washed on a plate washer as described herein. 245 μL of Sample Buffer then was pipetted into a labeled snap-cap tube for each patient sample to be tested, as well as for each standard and control. A 1:50 dilution of each patient sample as well as each standard and control was generated (e.g., 5 μL of each sample in 95 μL of Sample Buffer). 100 μL of each sample (patient, standard, control, and blank (i.e., 100 μL of Sample Buffer)) was pipetted into their respective wells as indicated on the plate map. The wells were covered with an adhesive plate cover, placed in a microplate shaker (Corning LSE Digital Microplate Shaker) at 500 rpms for 1 min, and then incubated at room temperature for 1 hour.\nAfter incubation, plates were washed on a plate washer as described herein. […] 100 μL was pipetted into each well and the plate was covered with an adhesive plate cover. […]"}
{"binder": "B1", "values": [{"measurement": "binding result", "value": "binds"}]}
